In experiment [1] the target is T1, human NGF protein (Sino biological, 11050-HNAC) (human, UniProt P01138 122-241). In words: cell-based or functional assay.
In experiment [2] the target is T1, human NGF protein (Sino biological, …). In words: cell-based or functional assay. This is another data set of the same source.

T1 sequence (P01138 122-241 limits assumed): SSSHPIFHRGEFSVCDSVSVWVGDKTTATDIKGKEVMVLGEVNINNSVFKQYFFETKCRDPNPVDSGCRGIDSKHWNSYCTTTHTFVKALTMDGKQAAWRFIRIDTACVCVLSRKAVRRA

B1: Tanezumab (antibody, human IgG2, kappa, V domains shown)
VH: QVQLQESGPGLVKPSETLSLTCTVSGFSLIGYDLNWIRQPPGKGLEWIGIIWGDGTTDYNSAVKSRVTISKDTSKNQFSLKLSSVTAADTAVYYCARGGYWYATSYYFDYWGQGTLVTVSS
VL: DIQMTQSPSSLSASVGDRVTITCRASQSISNNLNWYQQKPGKAPKLLIYYTSRFHSGVPSRFSGSGSGTDFTFTISSLQPEDIATYYCQQEHTLPYTFGQGTKLEIKR
With B1, in experiment [1], the “TF-1 cell proliferation-inhibiting activity, IC50 (TF-1 cells with human NGF, Cell-titer Glo)” value stood at 0.759 nM. Also, the “TF-1 cell proliferation-inhibiting activity, fold relative to bispecific antibody 1” value in experiment [2] was around 4.2 fold.

The values are drawn from US20260193370A1 (SUZHOU SUNCADIA BIOPHARMACEUTICALS, published 2026).
